Results on 3 molecules are retold here after PMC4357707 (Nucleic Acids Research, 2015).

In series [1] the target is T1, HEN1-RHK389,397,477AAA (Arabidopsis thaliana, UniProt Q9C5Q8 1-942, R389A;H397A;K477A).
T1 sequence: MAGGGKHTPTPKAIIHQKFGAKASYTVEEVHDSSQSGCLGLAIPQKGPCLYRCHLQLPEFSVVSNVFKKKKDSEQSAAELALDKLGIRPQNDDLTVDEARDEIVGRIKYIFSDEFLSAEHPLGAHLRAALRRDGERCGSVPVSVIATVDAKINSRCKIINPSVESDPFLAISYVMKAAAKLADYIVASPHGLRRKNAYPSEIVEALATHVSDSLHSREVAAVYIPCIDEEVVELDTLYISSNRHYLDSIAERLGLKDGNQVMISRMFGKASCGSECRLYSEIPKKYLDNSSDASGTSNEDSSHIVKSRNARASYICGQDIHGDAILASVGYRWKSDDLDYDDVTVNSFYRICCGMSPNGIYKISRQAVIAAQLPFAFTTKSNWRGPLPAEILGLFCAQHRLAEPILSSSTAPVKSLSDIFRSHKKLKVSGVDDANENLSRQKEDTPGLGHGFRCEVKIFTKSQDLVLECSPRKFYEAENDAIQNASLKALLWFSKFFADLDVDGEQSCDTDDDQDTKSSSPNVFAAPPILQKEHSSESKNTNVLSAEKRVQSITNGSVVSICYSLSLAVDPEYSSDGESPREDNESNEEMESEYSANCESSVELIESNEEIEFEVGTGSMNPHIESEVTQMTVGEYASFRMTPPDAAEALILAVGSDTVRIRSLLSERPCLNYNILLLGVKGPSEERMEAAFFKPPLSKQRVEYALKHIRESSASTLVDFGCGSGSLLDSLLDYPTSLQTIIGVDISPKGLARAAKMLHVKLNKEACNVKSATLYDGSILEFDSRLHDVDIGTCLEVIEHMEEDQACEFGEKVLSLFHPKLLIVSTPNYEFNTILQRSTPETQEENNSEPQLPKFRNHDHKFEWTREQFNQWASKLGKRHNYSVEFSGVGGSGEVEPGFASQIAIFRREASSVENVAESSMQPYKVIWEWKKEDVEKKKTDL
In words: EMSA. (Mobility shift assays separate free from complexed probe on a gel.)

In series [2] the target is T2, HYL1 (Arabidopsis thaliana, UniProt O04492 1-419).
T2 sequence: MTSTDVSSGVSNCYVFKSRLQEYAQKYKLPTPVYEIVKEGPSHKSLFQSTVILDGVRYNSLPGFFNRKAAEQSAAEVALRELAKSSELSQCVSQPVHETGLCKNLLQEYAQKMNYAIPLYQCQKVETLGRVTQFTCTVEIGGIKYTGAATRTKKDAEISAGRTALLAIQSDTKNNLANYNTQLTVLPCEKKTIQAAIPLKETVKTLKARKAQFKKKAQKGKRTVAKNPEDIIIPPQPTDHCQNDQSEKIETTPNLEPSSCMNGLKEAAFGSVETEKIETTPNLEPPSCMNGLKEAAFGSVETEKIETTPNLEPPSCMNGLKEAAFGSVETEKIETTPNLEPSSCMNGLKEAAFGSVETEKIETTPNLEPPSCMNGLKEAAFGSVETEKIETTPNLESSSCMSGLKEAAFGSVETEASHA
In words: EMSA.

In series [3] the target is T3, HEN1 wt;HYL1 (Arabidopsis thaliana;Arabidopsis …, UniProt Q9C5Q8;O04492 1-942;1-419, |).
T3 sequence 1: T1 sequence with A389R, A397H, A477K
T3 sequence 2: T2 sequence
In words: EMSA.

The target of series [4] is T4, HEN1 Δ38-45 (Arabidopsis thaliana, UniProt Q9C5Q8 1-37+=G+46-942, internal_change).
T4 sequence: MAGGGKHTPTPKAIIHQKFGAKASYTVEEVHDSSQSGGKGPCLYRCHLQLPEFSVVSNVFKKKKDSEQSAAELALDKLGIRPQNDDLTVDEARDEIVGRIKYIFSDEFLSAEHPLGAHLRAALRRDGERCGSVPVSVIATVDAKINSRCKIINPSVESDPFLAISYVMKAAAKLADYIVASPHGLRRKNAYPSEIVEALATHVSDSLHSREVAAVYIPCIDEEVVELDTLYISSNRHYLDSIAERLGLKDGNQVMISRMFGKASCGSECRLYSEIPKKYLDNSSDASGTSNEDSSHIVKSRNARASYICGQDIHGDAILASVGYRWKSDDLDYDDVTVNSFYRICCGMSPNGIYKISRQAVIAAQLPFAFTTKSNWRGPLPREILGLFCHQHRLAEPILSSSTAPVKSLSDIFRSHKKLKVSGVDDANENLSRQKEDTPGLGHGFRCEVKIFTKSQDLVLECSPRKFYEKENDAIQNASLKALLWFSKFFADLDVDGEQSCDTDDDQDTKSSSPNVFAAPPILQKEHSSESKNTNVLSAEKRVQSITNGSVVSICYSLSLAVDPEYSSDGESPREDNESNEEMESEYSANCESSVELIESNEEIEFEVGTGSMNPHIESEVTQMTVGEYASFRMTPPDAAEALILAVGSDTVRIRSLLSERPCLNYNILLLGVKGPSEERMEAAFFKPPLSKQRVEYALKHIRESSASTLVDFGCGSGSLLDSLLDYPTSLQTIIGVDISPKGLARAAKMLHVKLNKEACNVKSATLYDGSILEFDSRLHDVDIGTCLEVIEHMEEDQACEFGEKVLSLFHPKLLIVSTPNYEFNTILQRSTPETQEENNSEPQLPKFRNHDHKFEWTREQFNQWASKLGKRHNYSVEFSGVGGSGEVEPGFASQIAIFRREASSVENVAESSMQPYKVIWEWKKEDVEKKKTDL
In words: EMSA.

Series [5] deals with T5, HEN1 wt (Arabidopsis thaliana, UniProt Q9C5Q8 1-942).
T5 sequence: T1 sequence with A389R, A397H, A477K
Briefly: EMSA.

Series [6] concerns the target T1, HEN1-RHK389,397,477AAA. In words: EMSA. This is another data set of the same source.
The target of series [7] is T6, HEN1-R^1LR^2 (His-tagged, residues 1–519) (Arabidopsis thaliana, UniProt Q9C5Q8 1-519).
T6 sequence (looked up): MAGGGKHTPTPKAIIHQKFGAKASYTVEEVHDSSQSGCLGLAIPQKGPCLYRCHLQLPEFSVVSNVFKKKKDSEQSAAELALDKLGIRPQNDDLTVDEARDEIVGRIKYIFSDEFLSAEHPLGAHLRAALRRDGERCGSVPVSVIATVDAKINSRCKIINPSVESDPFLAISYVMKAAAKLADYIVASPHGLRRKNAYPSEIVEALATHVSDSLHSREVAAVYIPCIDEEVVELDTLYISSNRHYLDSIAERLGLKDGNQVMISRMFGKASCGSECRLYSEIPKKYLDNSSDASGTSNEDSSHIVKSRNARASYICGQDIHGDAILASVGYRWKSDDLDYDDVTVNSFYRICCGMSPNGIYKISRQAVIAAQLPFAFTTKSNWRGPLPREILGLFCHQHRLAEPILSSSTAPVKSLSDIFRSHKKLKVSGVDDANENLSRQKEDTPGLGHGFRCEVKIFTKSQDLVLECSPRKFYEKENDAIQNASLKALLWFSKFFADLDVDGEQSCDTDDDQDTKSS
In words: pull-down.

Where a chain is given by its changes, count along the chain named.

B1: siR173/siR173* (dsRNA)
RNA 1: UUAACGCUUGCAGAGAGAAUCAC
RNA 2: GAUUCUCUCUGCAAGCGUUAAAG
Usually Kd stands for the equilibrium constant for the complex coming apart. In the case of B1, binding in series [1] was put at a Kd of 293 ± 27 nM. In addition, the binding result in series [2] and in series [3] was “binds” throughout.

B2: miR173CH3/miR173*CH3 (dsRNA)
RNA 1: UUCGCUUGCAGAGAGAAAUCAC
RNA 2: GAUUCUCUGUGUAAGCGAAAG
modifications: 2'-O-methyl on 3'-terminal nucleotide of both strands
Take B2: the Kd in series [4] is 2.1 ± 0.1 nM; in series [5], 7.2 ± 0.1 nM. In series [6], the binding result is listed as “no binding”.

B3: GST-HYL1 (GST-fused full-length HYL1) (natural protein, UniProt O04492 1-419, looked up)
chain: T2 sequence
Consider B3, for which the binding result in series [7] is on record as “binds”.
